Laboratory results: the supplement of paper PMC10567573

B1: TCEB3B (parent)
chain: STTALGDKQRKANESKGTRESWDS

Variants of: B1
Test: protein stability index of a GFP-peptide fusion (GPS, HEK-293T) (PSI 1-6); higher = more stable
Conditions: c terminus: a fixed tail appended
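Also: lentivirally expressed fusions sorted by FACS into six bins by GFP to DsRed ratio, PSI derived from sequencing read proportions per bin multiplied by bin number.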

Protein stability index, by site and new letter:
K11: T 4.22 | H 4.29
E14: P 3.19 | H 3.88 | A 3.15 | C 2.77 | Q 3.54 | G 3.85 | F 3 | I 3.81 | K 3.33 | M 3.65 | L 3.9 | D 3.89 | N 4.06
A4: I 3.65 | R 3.34 | H 3.82 | Y 3.36 | V 3.96 | C 3.86 | S 3.81 | W 3.62 | E 4.14 | N 4.18 | P 3.88 | K 3.78 | T 4.46 | Q 3.9 | D 4.14 | L 3.49 | F 3.56 | M 3.54 | G 3.75
G6: L 4.08 | H 3.78 | Q 3.83 | T 3.81 | W 3.29 | S 3.85 | Y 3.68 | M 3.93 | N 4.38 | E 4.31 | C 3.74 | A 3.65 | R 4.07 | F 3.12 | D 4.12 | I 3.59 | K 3.3 | P 4.34 | V 2.98
Q9: V 3.85 | I 3.72 | T 4.14 | Y 3.64 | C 3.37 | A 3.38 | R 3.52 | M 4.08 | L 3.67 | P 3.53 | N 3.47 | G 3.62 | S 3.71 | H 4.26 | W 2.45 | K 4.09 | F 3.29 | E 3.71 | D 3.92
R10: C 3.53 | M 4.03 | Q 4.56 | A 4.13 | Y 4.26 | N 4.14 | E 4.57 | W 3.46 | F 4.15 | K 4.25 | G 4.55 | P 4.43 | S 4.26 | D 4.76 | V 3.54 | L 4.28 | I 3.6 | H 4.24 | T 4.33
T2: H 3.77 | V 3.67 | R 5.3 | D 4.01 | F 3.75 | G 3.49 | A 4.32 | N 4.25 | Q 3.33 | L 3.67 | S 4.09 | Y 3.33 | W 3.16 | K 4.11 | M 3.94 | C 3.8 | E 4.05 | I 3.29 | P 3.94
L5: Q 4.57 | A 4.37 | N 4.14 | K 4.37 | Y 3.37 | R 4.03 | H 4.25 | F 3.29 | W 3.64 | D 4.22 | C 3.44 | M 3.88 | S 4.25 | T 4.63 | E 4.57 | G 4.11 | I 3.17 | V 4.08 | P 4.37
N13: C 3.83 | L 3.67 | F 3.67 | M 3.7 | K 3.65 | A 3.91 | G 3.45 | S 4.14 | Y 3.22 | R 3.12 | V 4.12 | H 3.35 | T 3.78 | E 4.87 | D 4.64 | W 3.09 | I 3.59 | P 3.83 | Q 4.1
K8: S 4.31 | E 4.1 | V 4.17 | A 3.83 | W 4.51 | P 3.96 | H 3.86 | R 4.08 | I 3.98 | F 3.88 | N 4.15 | D 4.59 | Q 4.16 | G 4.29 | L 4.8 | M 4.12 | Y 3.11 | C 4.12 | T 3.46
